From publication PMC2762042
pKd: −log10 of the molar value.

Molecular target: hnRNP G-T RRM (Homo sapiens) (UniProt O75526)
Test: EMSA
Settings: EMSA with radio-labelled T7 transcripts and 30 or 100 ng RRM protein; buffer, salt, pH and temperature not given in material

Sequence of hnRNP G-T RRM (Homo sapiens) (O75526 8-86): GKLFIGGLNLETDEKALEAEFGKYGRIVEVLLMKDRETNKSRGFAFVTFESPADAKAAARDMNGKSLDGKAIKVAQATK

AGGUAUUGGGCUUUGGCUGAGGGCUUUUUGUUGUUGUUGUUGUUGUU [ABwt]
pKd: 8.77
